These results are taken from the supplement of paper PMC12764529.

± gives the half width of the 95% confidence interval.

Series [1] can be described thus: folding stability dG unfold (combined trypsin and chymotrypsin); higher = more stable. An outline of the steps: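 Digests were run with trypsin and chymotrypsin at 11 concentrations in threefold dilutions, plus a no-protease condition, on designed mini-proteins in a PA-tagged cDNA display construct. The mini-proteins were under 80 residues, had no cysteine, and were kept only when AlphaFold2 dimer inter-PAE was above 15. After sequencing, Bayesian fitting of the counts gave K50, from which unfolding free energy was derived against a sequence-predicted unfolded-state K50 and a shared folded-state K50, per protease or combined.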

Series [2] in a line: folding stability dG unfold from chymotrypsin proteolysis; higher = more stable. On the procedure:
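Folding stability of de novo designed mini-proteins (<80 aa, no Cys; designed by TrROS, TrMRF, ProteinMPNN and the joint model) was measured by cDNA display proteolysis with trypsin and chymotrypsin. Each protease was used at 11 concentrations in a threefold dilution series plus a no-protease condition. K50 was inferred by Bayesian fitting of sequencing counts, and dG unfold was derived against a sequence-predicted unfolded-state K50 (Tsuboyama et al. method). Sequences shown include variable-length N-terminal GS-type padding (SAGGSAGG...) inside a display construct carrying a PA tag. Rows were kept only if the AF2 dimer inter-PAE was >15, to exclude likely homo-oligomers.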

As for “SAGGMLITEEDLAALLAAVPPERPDAVVTLTVGRLQRILPGSTGENEPIPSSVEPSVVTLPVTVPPASAGGS [r16_708_JUSTAS]”, the “folding stability dG unfold” value in series [1] was < -1 kcal/mol; in series [2] it was -0.833 ± 0.24 kcal/mol.
On to “SAGGMLSRESTDPGPGRRTLTREEPLPDGTVPVTVTTESPDPSVTTVETRLVFPGPAVETPTRTAAPSAGGS [r16_684_JUSTAS]”, for which the “folding stability dG unfold” value was determined as 0.281 ± 0.052 kcal/mol in series [1] and 0.78 ± 0.038 kcal/mol in series [2].
For “SAGGMTIVSSGPSIEQALQEAAEAGGDATVIYKEPESNTIITLDVKYDPAPRTITVLSETETPVPPLLSAGG [r13_309_JUSTAS]” the same measures were 0.17 ± 0.1 kcal/mol and 0.758 ± 0.079 kcal/mol.
For “SAGGMTLDQLKENIKSVEVYPHPDGGYRMRVQIPQPNPDGKPKPREFNIPMPPNDPNMSADNVIDQILSAGG [r13_319_TrROS]” the same measures were < -1 kcal/mol and -0.353 ± 0.27 kcal/mol.
In the case of “SAGGMTTTTTLEVAPDTPYEAALAEIEAALAAAAAGRPVASSPVAARPGGARTLPLVVTDGAVTALGSAGGS [r8_7_JUSTAS]”, the “folding stability dG unfold” value was determined as 0.35 ± 0.07 kcal/mol in series [1] and 0.954 ± 0.041 kcal/mol in series [2].
Regarding “SAGGMTTTVTVTEDPATGTLTVPITIPRLDAEGNPTTEVLTVTLPASPEAEAAIAALAAALGIPAAASAGGS [r8_381_JUSTAS]”, the “folding stability dG unfold” value in series [1] came out at 0.369 ± 0.1 kcal/mol; in series [2] it was 0.943 ± 0.067 kcal/mol.
For the sequence “SAGGMTVTLRLTDPAGEEYTVTVTKTEGKSTATVYGPGGELVETRDFSSAEEAIAYLRAQGYTVEVIESAGG [r13_315_JUSTAS]”, the “folding stability dG unfold” value in series [1] amounted to 5.34 ± 0.081 kcal/mol; in series [2] it was 5.323 ± 0.049 kcal/mol.
“SAGGMTVVSTETDTATGRPVRTVRLPPEASLRELAALDGWVRLVDPAPDREVELPAEDPEAVVEALLASAGG [r13_604_JUSTAS]”: the “folding stability dG unfold” value in series [1] is -0.504 ± 0.22 kcal/mol; in series [2], 0.0196 ± 0.13 kcal/mol.
Regarding “SAGGNLRIRIEMENKDGNKRKIPIPEEEFNRIKESLKNGKPITPEPASWISDYARRNGYDVKIVDIYSAGGS [r8_159_TrROS]”, the “folding stability dG unfold” value in series [1] is -0.35 ± 0.33 kcal/mol; in series [2], -0.101 ± 0.36 kcal/mol.
The matching figures for “SAGGPNFMFRVKMPHPRPKKDPEDGKEKWRPQRHEHTVPFPADDPEQALDELADNMPPNNFKITDITSAGGS [r16_459_TrROS]”: -0.0582 ± 0.18 kcal/mol and 0.45 ± 0.22 kcal/mol.
For “SAGGSAEIEPVSSEVDPNSDRTVTTNRIPGSGKTRTVTYDSSNPGVTTVTTYAPGGKPLSTTTLPTSAGGSA [r15_974_JUSTAS]” the same measures were < -1 kcal/mol and -0.474 ± 0.28 kcal/mol.
The matching figures for “SAGGSAGGALTPTDEVTLTLPDGTVRPGRVEVLPDNVVRVRLEGSEVLLTRDPEGDEVTVERVASAGGSAGG [r6_68_JUSTAS]”: 0.503 ± 0.047 kcal/mol and 0.964 ± 0.011 kcal/mol.
Turning to “SAGGSAGGAPVYVTTDTRERADPNGSTVRTSLVRDPNGPATYRVTETVPPDGSVASTTTAVPGASAGGSAGG [r6_839_JUSTAS]”, the “folding stability dG unfold” value in series [1] was < -1 kcal/mol; in series [2], -0.532 ± 0.23 kcal/mol.
The matching figures for “SAGGSAGGDIKIEDIEYEQNPGGWQKVEVRLPGNGRPIEVPVPPGMPYEQAKDWAKDWAEELLKSAGGSAGG [r6_628_TrROS]”: 0.511 ± 0.22 kcal/mol and 0.724 ± 0.13 kcal/mol.
In the case of “SAGGSAGGDKVTIESFHPENWYFRIRYPGNGKPISFPIKSVDELLDKIEPSGLPVEIEWMPPEESAGGSAGG [r6_33_TrROS]”, the “folding stability dG unfold” value in series [1] was -0.0248 ± 0.32 kcal/mol; in series [2], 0.233 ± 0.26 kcal/mol.
Regarding “SAGGSAGGGASTRRTITVPYEDPEEAFEKVKEEVKAETGKPTEVTLTEIDPNNPGVITVEVTVSSAGGSAGG [r6_211_JUSTAS]”, the “folding stability dG unfold” value in series [1] stood at 0.351 ± 0.07 kcal/mol; in series [2] it was 0.938 ± 0.019 kcal/mol.
The matching figures for “SAGGSAGGKEVKVTLEYDEETGTLTLTVETPDGYVFKLEITFEKDEDGNLKVTIKLEVIPLEDLSAGGSAGG [r6_537_TrROS_Hall]”: 4.39 ± 0.61 kcal/mol and 4.45 ± 0.21 kcal/mol.
On to “SAGGSAGGKTKVKGTLIGPNGPPVEVEGEALLPDGREYDVHIDAVLLPDPEGEPTVVVKVEVKPSAGGSAGG [r6_334_TrMRF]”, for which the “folding stability dG unfold” value is -0.127 ± 0.23 kcal/mol in series [1] and 0.168 ± 0.051 kcal/mol in series [2].
The matching figures for “SAGGSAGGMFVPEGKTVTVKLPGNETVTVKVKAGNSRPFDSLEEIEAFAAQPGFDIEVSSSPAKSAGGSAGG [r6_433_JUSTAS]”: -0.722 ± 0.21 kcal/mol and 0.0627 ± 0.077 kcal/mol.
On to “SAGGSAGGMLVPLDDTRVVPLPDGSYAVLVRPADGSELLREFDSLEDAVEWAEATGAGVADLPASAGGSAGG [r6_84_TrMRF]”, for which the “folding stability dG unfold” value in series [1] is -0.553 ± 0.34 kcal/mol; in series [2] it was 0.0582 ± 0.18 kcal/mol.
The matching figures for “SAGGSAGGMPVVVETRPDPETGNEIVRITVPKPNYTLVLRRDSQGKETLLAEIGPYTPDDPGLLSAGGSAGG [r6_149_JUSTAS]”: -0.00962 ± 0.23 kcal/mol and 0.474 ± 0.18 kcal/mol.
